Assay results published in patent US7030099B2, “Tumor specific promoters of the midkine gene that allow for selective expression in P53-inactivated cells” (Research Corporation Technologies, Inc., priority 2000, dated 2006).

Assays:
[1] = test system: lung cancer cells QG-56, neuroblastoma NGP; assay: CAT assay of promoter transcription activity, tumor cells; type: cell-based, human; conditions: tumor cells versus normal cells
Description: Using the above plasmid, or a plasmid pCAT-Control (manufactured by Promega) having the promoter of SV40 virus, and a plasmid pCAT-Basic (manufactured by Promega) containing no promoters, gene introduction was performed on the lung cancer cells QG-56, the neuroblastoma NGP, and the normal human fibroblasts MRC-5 that were being cultured in a DMEM (Sigma) supplemented with 10% bovine fetal serum. After 10 μg each of these plasmids and lipofectin (Life Technologies) were mixed, it was allowed to stand at room temperature for 30 minutes to form a complex. Then the complex, after removing the bovine fetal serum therefrom, was contacted with the cells. Eight hours later culture medium supplemented with bovine fetal serum was added, cultured for 40 hours, and then the gene-introduced cells were disrupted by ultrasonication. After centrifugation, the supernatants were used to examine their transcription activities with the known CAT assay method (Gorman, C M et al., Mol. Cell. Biol., 2:1044–1051, 1982) using [^14C]-chloramphenicol and acetyl CoA. At this time, in order to normalize the efficiency of gene introduction, 1 μg of the β-galactosidase gene (pCH110, manufactured by Amersham) was introduced at the same time, and the β-galactosidase activity (Heromel, P. et al., Cell, 39:653–662, 1984) was determined.

[2] = test system: immortalized MRC-5 cells (p53 functions inactivated); assay: In vitro sensitivity to GCV of promoter-TK gene-introduced cells (Cell Counting Kit-8 survival); type: cell-based, human; conditions: HSV-TK gene powered by the promoter, GCV seven days, FIG. 2B
Description: (§1) (1) In order to examine cytotoxic effects by the transcription activity of the promoter obtained from the midkine gene, herpes simplex virus thymidine kinase (HSV-TK), a suicide gene, was ligated downstream of MK0.6 and MK2.3, and the plasmid was introduced in cells, and a prodrug gancyclovir (GCV) was added into the culture medium of the gene-introduced cells. The method of determining the cytotoxic effect by this system is as described in Moolten, FL. Cancer Gene Ther., 1:279–287, 1994.
(§2) First, the CMV promoter of pcDNA3 (manufactured by Invitrogen) was removed using NruI and HindIII sites, to which MK2.3 or Mk0.6 was inserted, and then using the EcoRV site, the HSV-TK gene excised from pMK (Brinster, R L et al., Cell, 27:223–231, 1981) with BglI and EcoRI was inserted. Each of the plasmids thus obtained (MK2.3-TK and MK0.6-TK) was introduced, as described above, using lipofectin into MRC-5 which are normal cells, or MRC-5 cells that had been immortalized by inactivating the functions of the p53 tumor suppressor gene. In order to utilize the expression of the Neo gene contained in pcDNA3 as drug resistant markers, the cells were cultured with 400 μg/ml of G418 (manufactured by Life Technologies) for ten days to establish the cells that expressed MK2.3-TK and MK0.6-TK, respectively. These cells were then plated at 500 cells/well of 96-well culture plates, and were cultured in the presence of various concentrations of GCV (manufactured by F. Hoffman-La Roche) for seven days. The survival rate of the cells was examined using the Cell Counting Kit-8 (manufactured by Dojin Kagaku). The survival of the cells at a GCV concentration of 0 μg/ml was set as 100%, and the survival for each experiment group is shown in terms of percentage in FIG. 2A and FIG. 2B.

[3] = test system: normal MRC-5 cells; assay: as above; type: cell-based, human; conditions: HSV-TK gene controlled by the promoter, GCV seven days, FIG. 2A
Description: as §1, §2

[4] = test system: normal human fibroblasts HEF, MRC-5; assay: Luciferase assay of c-erbB-2 promoter activity, normal fibroblasts; type: cell-based; conditions: FIG. 7B
Description: (§3) With the transcription initiation site of the c-erbB-2 gene as +1, DNA that corresponded to a genomic region (p533) from −435 to +38 and that had the sequence set forth in SEQ ID NO: 7 was amplified by the PCR method, and then the DNA fragment was integrated into the pGEM-TEasy (manufactured by Promega), and the sequences of the PCR product was determined. Thus, after inserting this PCR product into the SmaI site of pGL2-Basic (manufactured by Promega), it was cleaved with BlnI/SmaI, PstI/SmaI, and BssHII/SmaI using the restriction enzyme sites present on the c-erbB-2 genomic gene to construct plasmids in which the genomic regions of c-erbB-2, p344 (−306/+38) (DNA having the base sequence set forth in SEQ ID NO: 8), p251 (−213/+38) (DNA having the base sequence set forth in SEQ ID NO: 9) and p124 (−86/+38) (DNA having the base sequence set forth in SEQ ID NO: 10) are localized upstream of the Firefly luciferase gene, respectively. Using the plasmid pGL2-Control (manufactured by Promega) having the promoter of SV40 virus and the plasmid pGL2-Basic (manufactured by Promega) containing no promoters, gene introduction was performed in human breast cancer cells OCUBM, MCF7, BT549, normal human fibroblasts HEF, MRC-5, human malignant melanoma A875, and human lung cancer cells QG-56, all of which were cultured in DMEM (Sigma) supplemented with 10% bovine fetal serum. Firstly, after 10 μg each of these plasmids and lipofectin (Life Technologies) were mixed, it was allowed to stand at room temperature for 30 minutes to form a complex of DNA and lipid. Then the complex, after removing the bovine fetal serum therefrom, was contacted with the cells. Eight hours later culture medium supplemented with bovine fetal serum was added. After 48 hours-culture, the cells were disrupted using the Dual-Luciferase Reporter Assay System (manufactured by Promega), and the Firefly luciferase activity therein was determined using the reagents in the same kit. In order to normalize the efficiency of gene introduction, 1 μg of pRL-TK plasmid (manufactured by Promega) was included in each gene-introduced group, and the Renilla luciferase activity by the TK promoter was determined, based on which the Firefly luciferase activity was corrected.

[5] = test system: human malignant melanoma A875, human lung cancer cells QG-56; assay: Luciferase assay of c-erbB-2 promoter activity, non-breast tumor cells; type: cell-based; conditions: human malignant melanoma cells and human lung cancer cells; FIG. 7C
Description: as §3

[6] = test system: human breast cancer cells OCUBM, MCF7, BT549; assay: Luciferase assay of c-erbB-2 promoter activity, breast cancer cells; type: cell-based; conditions: FIG. 7A
Description: as §3, with “Then the complex, after removing the bovine fetal serum therefrom, was contacted with the cells. Eight hours later culture medium supplemented with bovine fetal serum was added.” left out

Molecule: MK2.3: 2.3 kb of the human midkine genomic gene, base sequence SEQ ID NO: 3; previously reported promoter [reference compound]
- tumor-specificity of promoter activity [1]: weak
- sensitivity to GCV compared to that of the parent strain [2]: 1000 fold
- sensitivity to GCV compared to that of the parent strain [3]: 500 fold

B1: p344: c-erbB-2 genomic region −306/+38, SEQ ID NO: 8 (nucleic acid, listed as Homo sapiens)
DNA: CTAGGGAATTTATCCCGGACTCCGGGGGAGGGGGCAGAGTCACCAGCCTCTGCATTTAGGGATTCTCCGAGGAAAAGTGTGAGAACGGCTGCAGGCAACCCAGGCGTCCCGGCGCTAGGAGGGACGACCCAGGCCTGCGCGAAGAGAGGGAGAAAGTGAAGCTGGGAGTTGCCGACTCCCAGACTTCGTTGGAATGCAGTTGGAGGGGGCGAGCTGGGAGCGCGCTTGCTCCCAATCACAGGAGAAGGAGGAGGTGGAGGAGGAGGGCTGCTTGAGGAAGTATAAGAATGAAGTTGTGAAGCTGAGATTCCCCTCCATTGGGACCGGAGAAACCAGGGGAGCCC
- promoter activity compared with SV40 promoter [4]: more potent than the SV40 promoter activity in some cases
- transcription activity compared with SV40 promoter [5]: lower than the SV40 promoter

B2: p533: c-erbB-2 genomic region from −435 to +38, SEQ ID NO: 7; conventionally used promoter (nucleic acid, listed as Homo sapiens)
DNA: GGGGGTCCTGGAAGCCACAAGGTAAACACAACACATCCCCCTCCTTGACTATCAATTTTACTAGAGGATGTGGTGGGAAAACCATTATTTGATATTAAAACAAATAGGCTTGGGATGGAGTAGGATGCAAGCTCCCCAGGAAAGTTTAAGATAAAACCTGAGACTTAAAAGGGTGTTAAGAGTGGCAGCCTAGGGAATTTATCCCGGACTCCGGGGGAGGGGGCAGAGTCACCAGCCTCTGCATTTAGGGATTCTCCGAGGAAAAGTGTGAGAACGGCTGCAGGCAACCCAGGCGTCCCGGCGCTAGGAGGGACGACCCAGGCCTGCGCGAAGAGAGGGAGAAAGTGAAGCTGGGAGTTGCCGACTCCCAGACTTCGTTGGAATGCAGTTGGAGGGGGCGAGCTGGGAGCGCGCTTGCTCCCAATCACAGGAGAAGGAGGAGGTGGAGGAGGAGGGCTGCTTGAGGAAGTATAAGAATGAAGTTGTGAAGCTGAGATTCCCCTCCATTGGGACCGGAGAAACCAGGGGAGCCC
- promoter activity compared with SV40 promoter [4]: more potent than the SV40 promoter activity in some cases

B3: p124: c-erbB-2 genomic region −86/+38, SEQ ID NO: 10 (nucleic acid, listed as Homo sapiens)
DNA: CGCGCTTGCTCCCAATCACAGGAGAAGGAGGAGGTGGAGGAGGAGGGCTGCTTGAGGAAGTATAAGAATGAAGTTGTGAAGCTGAGATTCCCCTCCATTGGGACCGGAGAAACCAGGGGAGCCC
modifications: expressed or natural sequence
- transcription activity compared with other c-erbB-2 promoter fragments [6]: marked low compared with the p251 promoter
- transcription activity compared with SV40 promoter [5]: lower than the SV40 promoter

B4: MK1.0: 1.0 kb of the human midkine genomic gene, base sequence SEQ ID NO: 2 (nucleic acid, listed as Homo sapiens)
DNA: GGCCGCGCTCGTCGGGGCCGGGCGGGGGCCGATCCCTCCGGCTTCCCTTCCCGCGGAGAACAACAATGAAAGTGAAAGAGGGGTGGGGCGGGGGCGAGCCCGGGTTCTGTGGCCCATTTGCCCTGTGGCCTTGAGCAAGCCCCTCCCCCAGGCCTCGGGGGCTCTCCCGGTTTGGGGGAACCGGGCGAGGCAATGCCACAGGCCCAGGGTTAGAGGGGGTGGGCACTTGCAGCTGCCGATGTGGCTGGATCTGGAACTTCTCAGACGGCTCCTGTCAGCGCCAAGTTTCACCAAATCCAGGCCTGCGGGCTCCTCCCCCAGGACCCCCACTCGCAGTCCCTCAAGCCTGTGCTCCCGGAAAGGCACTGGGCGACCGCACCCGTGGCTTTCTCTGGGCGACCGGGTCCCAGACTCCCCCCAGCACAGCAGAGCGCTTCCCTGCCCACCCGCGGAAACCGCCCCAGGTGGCCGCGCCCCCTCCCCAGCAGCCAGCAGGGCGCCAGGGCTGAGCCGGCCGTGGAGGGGAGCGGGTCCCGGGGGTTATACAGGCGCCGGGCGTCCGCGGCAGGCAAGAGAAGCTGAGGCCTGAGAACGGCCCGGGCCTTGGCGTACGGCAGGGGACGACCTGGGATGGGGGCAGCGGGCGGCGGCGCAGGGAGTGGGCCGGGGCCGGTGTGCGCGGGCGGGACGGGGCCGGGGTCGGGAGACCACCGCTCGGAAGATGGGGCCGGGAGAGGCCGCCGTCGCAGCGCAGAGGGCACCGGCGGGGAGACGCGAGGACGCGGGGCCGGGAACACGGACGCCGGAGTAGAAGCGCGGGGGGGGCGGGCTGGAGCGGGGGCGGGGACGCCGGGGTCGGGGGCGGTGCGGGTTTGAGGGGAGGGGGCGGGGCGGGTCCTTCCCTGGGGGGGTGGGGAGAGGGGGCGGGGGCCCATGTGACCGGCTCAGACCGGTTCTGGAGACAAAAGGGGCCGCGGCGGCCGGAGCGGGACGGGCCCGGCGCGGGAGGGAGCGAAGCAGCGCGGGCAGCGAGCGAGTGAG
- tumor-specificity of promoter activity [1]: weak
